Assay results as given in patent publication US20030100484A1.

Target: urotensin II receptor (human) (UniProt Q9UKP6)
Test: cell-based or functional assay

Sequence of UniProt Q9UKP6 (Q9UKP6 whole entry): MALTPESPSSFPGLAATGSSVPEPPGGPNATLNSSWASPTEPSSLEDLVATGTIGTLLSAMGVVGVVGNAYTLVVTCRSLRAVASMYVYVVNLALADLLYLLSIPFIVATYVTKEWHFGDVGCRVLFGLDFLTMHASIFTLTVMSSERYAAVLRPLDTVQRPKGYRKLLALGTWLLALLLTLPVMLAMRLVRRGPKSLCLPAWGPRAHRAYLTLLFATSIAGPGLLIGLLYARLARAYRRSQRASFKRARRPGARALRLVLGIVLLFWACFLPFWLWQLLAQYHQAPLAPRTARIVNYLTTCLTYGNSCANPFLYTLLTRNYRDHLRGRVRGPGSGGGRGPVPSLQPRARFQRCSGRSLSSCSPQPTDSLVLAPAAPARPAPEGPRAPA

**Q.** How did the CTGF mRNA (real-time PCR, GAPDH mRNA as reference) in human heart fibroblasts after 6 h with 1 µM urotensin II; control 0.45 +/- 0.27 (relative to GAPDH mRNA) turn out when “urotensin II (from UniProt O95399 114-124) (peptide)” was run?
**A.** Its CTGF mRNA (real-time PCR, GAPDH mRNA as reference) in human heart fibroblasts after 6 h with 1 µM urotensin II; control 0.45 +/- 0.27 (relative to GAPDH mRNA) is 0.88.

**Q.** And the Col 1 mRNA (real-time PCR, GAPDH mRNA as reference) in human heart fibroblasts after 6 h with 1 µM urotensin II; control 0.56 +/- 0.1 (relative to GAPDH mRNA)?
**A.** Its Col 1 mRNA (real-time PCR, GAPDH mRNA as reference) in human heart fibroblasts after 6 h with 1 µM urotensin II; control 0.56 +/- 0.1 (relative to GAPDH mRNA) is 0.92.

**Q.** What about the MMP 2 mRNA (real-time PCR, GAPDH mRNA as reference) in human heart fibroblasts after 6 h with 1 µM urotensin II; control 0.43 +/- 0.2 (relative to GAPDH mRNA) of the same substance?
**A.** Its MMP 2 mRNA (real-time PCR, GAPDH mRNA as reference) in human heart fibroblasts after 6 h with 1 µM urotensin II; control 0.43 +/- 0.2 (relative to GAPDH mRNA) is 0.65.

**Q.** What about the TGFbeta1 mRNA (real-time PCR, GAPDH mRNA as reference) in human heart fibroblasts after 6 h with 1 µM urotensin II; control 0.60 +/- 0.09 (relative to GAPDH mRNA) of the same substance?
**A.** The TGFbeta1 mRNA (real-time PCR, GAPDH mRNA as reference) in human heart fibroblasts after 6 h with 1 µM urotensin II; control 0.60 +/- 0.09 (relative to GAPDH mRNA) was 0.81.
